The results in this text go back to IntAct's records for PubMed 20598684.

The labels stand for the following.
B1: Abl interactor 1 (Homo sapiens), Q8IZP0 (parent)
chain: MAELQMLLEEEIPSGKRALIESYQNLTRVADYCENNYIQATDKRKALEETKAYTTQSLASVAYQINALANNVLQLLDIQASQLRRMESSINHISQTVDIHKEKVARREIGILTTNKNTSRTHKIIAPANMERPVRYIRKPIDYTVLDDVGHGVKWLKAKHGNNQPARTGTLSRTNPPTQKPPSPPMSGRGTLGRNTPYKTLEPVKPPTVPNDYMTSPARLGSQHSPGRTASLNQRPRTHSGSSGGSGSRENSGSSSIGIPIAVPTPSPPTIGPENISVPPPSGAPPAPPLAPLLPVSTVIAAPGSAPGSQYGTMTRQISRHNSTTSSTSSGGYRRTPSVTAQFSAQPHVNGGPLYSQNSISIAPPPPPMPQLTPQIPLTGFVARVQENIADSPTPPPPPPPDDIPMFDDSPPPPPPPPVDYEDEEAAVVQYNDPYADGDPAWAPKNYIEKVVAIYDYTKDKDDELSFMEGAIIYVIKKNDDGWYEGVCNRVTGLFPGNYVESIMHYTD

Variants of B1 are the subject of this test. To be noted: with p85a_human PIK3R1, P27986.
p85a_human PIK3R1, P27986, sequence (P27986 whole entry): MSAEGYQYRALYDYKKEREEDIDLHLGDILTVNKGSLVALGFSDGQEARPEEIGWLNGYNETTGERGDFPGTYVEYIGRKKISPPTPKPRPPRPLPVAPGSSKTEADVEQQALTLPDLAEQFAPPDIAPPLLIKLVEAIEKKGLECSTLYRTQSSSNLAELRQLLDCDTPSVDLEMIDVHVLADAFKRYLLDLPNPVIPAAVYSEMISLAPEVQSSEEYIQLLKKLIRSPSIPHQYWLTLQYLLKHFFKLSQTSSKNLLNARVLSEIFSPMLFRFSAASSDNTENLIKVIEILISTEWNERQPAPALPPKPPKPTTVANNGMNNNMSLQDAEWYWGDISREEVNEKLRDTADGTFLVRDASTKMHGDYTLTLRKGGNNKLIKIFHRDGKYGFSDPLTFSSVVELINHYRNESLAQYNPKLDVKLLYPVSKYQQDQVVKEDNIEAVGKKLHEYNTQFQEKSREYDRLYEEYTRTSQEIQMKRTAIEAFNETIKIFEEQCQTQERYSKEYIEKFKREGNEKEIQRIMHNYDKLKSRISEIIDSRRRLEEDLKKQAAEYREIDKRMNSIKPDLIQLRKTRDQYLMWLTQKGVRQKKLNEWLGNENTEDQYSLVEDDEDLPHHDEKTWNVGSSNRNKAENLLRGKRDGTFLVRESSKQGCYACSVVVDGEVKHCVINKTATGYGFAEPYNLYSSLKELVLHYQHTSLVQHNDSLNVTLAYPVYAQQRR
Take Y213F: the “effect of a mutation on the interaction” value is on record as “disrupting interaction”.
